Measured values published in patent publication US20170204158A1 (Regeneron, published 2017).

Assays:
[1] = biological target: T1, human IL-33 (R&D Systems, # 3625-IL-010/CF) (human, UniProt O95760 112-270, biotinylated in the blocking ELISA of Example 3 (sites not given)); assay: cell-based or functional assay
T1 sequence (looked up): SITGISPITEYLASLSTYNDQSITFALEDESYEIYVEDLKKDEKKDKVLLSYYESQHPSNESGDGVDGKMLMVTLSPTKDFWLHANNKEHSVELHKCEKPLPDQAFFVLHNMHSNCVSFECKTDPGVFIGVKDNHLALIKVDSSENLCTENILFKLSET

[2] = biological target: T1, human IL-33 (R&D Systems, # …); assay: SPR (Biacore T-200), 25 C; Fc fusion captured by anti-Fc antibody, IL-33 injected
Protocol: (§1) The Biacore sensor surface was first derivatized by amine coupling a polyclonal rabbit anti-mouse antibody (GE, # BR-1008-38) or with a monoclonal mouse anti-human Fc antibody (GE, # BR-1008-39) to capture IL-33 Trap and receptor proteins with a C-terminal mouse IgG2a Fc tag or a C-terminal human IgG1 Fc tag, respectively. Kinetic experiments were carried out in 0.01 M HEPES pH 7.4, 0.15 M NaCl, 3 mM EDTA, and 0.005% v/v Surfactant Tween-20 (HBST running buffer). Different concentrations of human IL-33, mouse IL-33 or MfIL-33-6His prepared in HBST running buffer (ranging from 60 nM to 27.4 pM, 3-fold dilutions, for Trap proteins and ranging from 60 nM to 0.25 nM, 3-fold dilutions, for ST2 receptor proteins) were injected over the captured IL-33 Trap and receptor protein surfaces at a flow rate of 50 μL/minute. Association of different IL-33 proteins to the different capture surfaces was monitored for 7 minutes for Trap proteins or 4 minutes for ST2 receptor proteins and their dissociation in HBST running buffer was monitored for 14 minutes for Trap proteins or 8 minutes for ST2 receptor proteins. Kinetic association (ka) and dissociation (kd) rate constants were determined by fitting the real-time binding sensorgrams to a 1:1 binding model using Scrubber 2.0c curve-fitting software. Binding dissociation equilibrium constants (KD) and dissociative half-lives (t½) were calculated from the kinetic rate constants as: […]

[3] = biological target: T2, mouse IL-33 (R&D Systems, # 3626-ML-010/CF) (mouse, UniProt Q8BVZ5 109-266); assay: SPR (Biacore T-200), 25 C; Fc fusion captured by anti-Fc antibody, mouse IL-33 injected
T2 construct: Commercial protein; also called mIL-33; mIL33
T2 sequence (looked up): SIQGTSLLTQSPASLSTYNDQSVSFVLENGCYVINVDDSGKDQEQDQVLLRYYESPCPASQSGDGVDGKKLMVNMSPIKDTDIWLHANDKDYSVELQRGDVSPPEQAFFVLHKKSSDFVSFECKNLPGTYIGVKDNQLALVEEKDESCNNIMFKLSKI
Protocol: as §1

[4] = biological target: T3, monkey IL-33 expressed with C-terminal hexahistidine tag (MfIL-33-6His) (cynomolgus monkey (M. fascicularis)); assay: SPR (Biacore T-200), 37 C; Fc fusion captured by anti-Fc antibody, MfIL-33-6His injected
T3 construct: also called M. fascicularis IL-33-6His; cynomolgus monkey IL-33
T3 chain: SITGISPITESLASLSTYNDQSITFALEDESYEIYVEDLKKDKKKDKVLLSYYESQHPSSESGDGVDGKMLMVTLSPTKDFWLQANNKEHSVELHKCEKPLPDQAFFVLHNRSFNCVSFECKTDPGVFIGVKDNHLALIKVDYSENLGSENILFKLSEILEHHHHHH
Protocol: as §1

[5] = biological target: T1, human IL-33 (R&D Systems, # …); assay: competition ELISA; antagonist pre-mixed with 20 pM biotin-hIL-33, binding to plate-coated human ST2-Fc
Protocol: The ability of exemplary IL-33 antagonists of the invention to block human IL-33 (hIL-33) binding to the human ST2 receptor was measured using a competition sandwich ELISA. A portion of human ST2 protein ecto domain that was expressed with a C-terminal mouse Fc tag (SEQ ID NO:2) was coated at a concentration of 1 μg/mL in PBS buffer on a 96-well microtiter plate overnight at 4° C. […] Biotinylated hIL-33 protein (R&D systems, #3625-IL/CF) (biot-hIL-33) was added to achieve a constant final concentration of 20 pM to serial dilutions of IL-33 antagonists ranging from 0 to 100 nM. The mixture was incubated for 1 hour at room temperature (RT) before transfer to the hST2-hFc coated microtiter plates. After incubation for 1 hour at RT, the wells were then washed, and plate-bound biot-hIL-33 was detected with HRP-conjugated streptavidin (Thermo Scientific, # N200). All samples were developed with a TMB solution (BD biosciences, # 51-2607KC) to produce a colorimetric reaction and then quenched by acidification with 1M sulfuric acid before measuring absorbance at 450 nm on a Victor X5 plate reader (PerkinElmer). Data analysis was performed using a sigmoidal dose-response model within Prism™ software. […] Maximum blocking values represent the ability of the antagonists to block IL-33 binding relative to baseline. The absorbance measured at the constant amount of hIL-33 on the dose curve was defined as 0% blocking and the absorbance with no added IL-33 was defined as 100% blocking. The absorbance values of the wells containing the highest concentration tested for each antagonist were used to determine the maximum blocking percent.

IC50 (M), blocking of IL-33 induced IFN-gamma release from human PBMC, donor 634966 [1]: 2.13e-12 M | IC50 (M), blocking of IL-33 induced IFN-gamma release from human PBMC, donor 655681 [1]: 4.59e-11 M | IC50 (M), blocking of IL-33 induced IFN-gamma release from human PBMC, donor 655682 [1]: 3.97e-12 M | IC50 (M), blocking of IL-33 induced IFN-gamma release from human PBMC, donor 655684 [1]: 6.79e-11 M | IC50 (M), blocking of IL-33 induced IFN-gamma release from human PBMC, donor 698842 [1]: 7.39e-11 M | IC50 (M), blocking of IL-33 induced IFN-gamma release from human PBMC, donor 698843 [1]: 1.73e-11 M | IC50 (M), blocking of IL-33 induced IFN-gamma release from human PBMC, donor 727054 [1]: 3.34e-10 M | IC50 (M), blocking of IL-33 induced IFN-gamma release from human PBMC, donor 727055 [1]: 1.23e-10 M | 60 nM Human IL-33 Bound (RU) [2]: 28 RU | Kd [2]: 0.00329 nM | koff [2]: 6.32e-05 s⁻¹ | kon [2]: 1.92e+07 M⁻¹ s⁻¹ | t1/2 [2]: 3.05 h | 60 nM Mouse IL-33 Bound (RU) [3]: 22 RU | Kd [3]: 0.0192 nM | koff [3]: 8.97e-05 s⁻¹ | kon [3]: 4.67e+06 M⁻¹ s⁻¹ | t1/2 [3]: 2.15 h | 60 nM Monkey IL-33 Bound (RU) [4]: 27 RU | Kd [4]: 0.00329 nM | koff [4]: 4.79e-05 s⁻¹ | kon [4]: 1.45e+07 M⁻¹ s⁻¹ | t1/2 [4]: 4.02 h | IC50 [5]: 0.00634 nM
B1: hST2-hIL1RAcP-mFc (Fc fusion)
chain: KFSKQSWGLENEALIVRCPRQGKPSYTVDWYYSQTNKSIPTQERNRVFASGQLLKFLPAAVADSGIYTCIVRSPTFNRTGYANVTIYKKQSDCNVPDYLMYSTVSGSEKNSKIYCPTIDLYNWTAPLEWFKNCQALQGSRYRAHKSFLVIDNVMTEDAGDYTCKFIHNENGANYSVTATRSFTVKDEQGFSLFPVIGAPAQNEIKEVEIGKNANLTCSACFGKGTQFLAAVLWQLNGTKITDFGEPRIQQEEGQNQSFSNGLACLDMVLRIADVKEEDLLLQYDCLALNLHGLRRHTVRLSRKNPIDHHSSERCDDWGLDTMRQIQVFEDEPARIKCPLFEHFLKFNYSTAHSAGLTLIWYWTRQDRDLEEPINFRLPENRISKEKDVLWFRPTLLNDTGNYTCMLRNTTYCSKVAFPLEVVQKDSCFNSPMKLPVHKLYIEYGIQRITCPNVDGYFPSSVKPTITWYMGCYKIQNFNNVIPEGMNLSFLIALISNNGNYTCVVTYPENGRTFHLTRTLTVKVVGSPKNAVPPVIHSPNDHVVYEKEPGEELLIPCTVYFSFLMDSRNEVWWTIDGKKPDDITIDVTINESISHSRTEDETRTQILSIKKVTSEDLKRSYVCHARSAKGEVAKAAKVKQKVPAPRYTVESGEPRGPTIKPCPPCKCPAPNLLGGPSVFIFPPKIKDVLMISLSPIVTCVVVDVSEDDPDVQISWFVNNVEVHTAQTQTHREDYNSTLRVVSALPIQHQDWMSGKEFKCKVNNKDLPAPIERTISKPKGSVRAPQVYVLPPPEEEMTKKQVTLTCMVTDFMPEDIYVEWTNNGKTELNYKNTEPVLDSDGSYFMYSKLRVEKKNWVERNSYSCSVVHEGLHNHHTTKSFSRTPGK
notes: also called third IL-33 antagonist; human IL-33 Trap
